# B1: RB12B_HUMAN (protein, UniProt Q8IXT5 1-1001, looked up)
# RNA-binding protein 12B: MAVVIRLLGLPFIAGPVDIRHFFTGLTIPDGGVHIIGGEIGEAFIIFATDEDARRAISRSGGFIKDSSVELFLSSKAEMQKTIEMKRTDRVGRGRPGSGTSGVDSLSNFIESVKEEASNSGYGSSINQDAGFHTNGTGHGNLRPRKTRPLKAENPYLFLRGLPYLVNEDDVRVFFSGLCVDGVIFLKHHDGRNNGDAIVKFASCVDASGGLKCHRSFMGSRFIEVMQGSEQQWIEFGGNAVKEGDVLRRSEEHSPPRGINDRHFRKRSHSKSPRRTRSRSPLGFYVHLKNLSLSIDERDLRNFFRGTDLTDEQIRFLYKDENRTRYAFVMFKTLKDYNTALSLHKTVLQYRPVHIDPISRKQMLKFIARYEKKRSGSLERDRPGHVSQKYSQEGNSGQKLCIYIRNFPFDVTKVEVQKFFADFLLAEDDIYLLYDDKGVGLGEALVKFKSEEQAMKAERLNRRRFLGTEVLLRLISEAQIQEFGVNFSVMSSEKMQARSQSRERGDHSHLFDSKDPPIYSVGAFENFRHQLEDLRQLDNFKHPQRDFRQPDRHPPEDFRHSSEDFRFPPEDFRHSPEDFRRPREEDFRRPSEEDFRRPWEEDFRRPPEDDFRHPREEDWRRPLEEDWRRPLEEDFRRSPTEDFRQLPEEDFRQPPEEDLRWLPEEDFRRPPEEDWRRPPEEDFRRPLQGEWRRPPEDDFRRPPEEDFRHSPEEDFRQSPQEHFRRPPQEHFRRPPPEHFRRPPPEHFRRPPPEHFRRPPPEHFRRPPPEHFRRPPPEHFRRPPQEHFRRPPQEHFRRSREEDFRHPPDEDFRGPPDEDFRHPPDEDFRSPQEEDFRCPSDEDFRQLPEEDLREAPEEDPRLPDNFRPPGEDFRSPPDDFRSHRPFVNFGRPEGGKFDFGKHNMGSFPEGRFMPDPKINCGSGRVTPIKIMNLPFKANVNEILDFFHGYRIIPDSVSIQYNEQGLPTGEAIVAMINYNEAMAAIKDLNDRPVGPRKVKLTLL
# B2: NOMO1_HUMAN (protein, UniProt Q15155 32-1222, looked up)
# BOS complex subunit NOMO1: SEDIVVGCGGFVKSDVEINYSLIEIKLYTKHGTLKYQTDCAPNNGYFMIPLYDKGDFILKIEPPLGWSFEPTTVELHVDGVSDICTKGGDINFVFTGFSVNGKVLSKGQPLGPAGVQVSLRNTGTEAKIQSTVTQPGGKFAFFKVLPGDYEILATHPTWALKEASTTVRVTNSNANAASPLIVAGYNVSGSVRSDGEPMKGVKFLLFSSLVTKEDVLGCNVSPVPGFQPQDESLVYLCYTVSREDGSFSFYSLPSGGYTVIPFYRGERITFDVAPSRLDFTVEHDSLKIEPVFHVMGFSVTGRVLNGPEGDGVPEAVVTLNNQIKVKTKADGSFRLENITTGTYTIHAQKEHLYFETVTIKIAPNTPQLADIIATGFSVCGQISIIRFPDTVKQMNKYKVVLSSQDKDKSLVTVETDAHGSFCFKAKPGTYKVQVMVPEAETRAGLTLKPQTFPLTVTNRPMMDVAFVQFLASVSGKVSCLDTCGDLLVTLQSLSRQGEKRSLQLSGKVNAMTFTFDNVLPGKYKISIMHEDWCWKNKSLEVEVLEDDMSAVEFRQTGYMLRCSLSHAITLEFYQDGNGRENVGIYNLSKGVNRFCLSKPGVYKVTPRSCHRFEQAFYTYDTSSPSILTLTAIRHHVLGTITTDKMMDVTVTIKSSIDSEPALVLGPLKSVQELRREQQLAEIEARRQEREKNGNEEGEERMTKPPVQEMVDELQGPFSYDFSYWARSGEKITVTPSSKELLFYPPSMEAVVSGESCPGKLIEIHGKAGLFLEGQIHPELEGVEIVISEKGASSPLITVFTDDKGAYSVGPLHSDLEYTVTSQKEGYVLTAVEGTIGDFKAYALAGVSFEIKAEDDQPLPGVLLSLSGGLFRSNLLTQDNGILTFSNLSPGQYYFKPMMKEFRFEPSSQMIEVQEGQNLKITITGYRTAYSCYGTVSSLNGEPEQGVAMEAVGQNDCSIYGEDTVTDEEGKFRLRGLLPGCVYHVQLKAEGNDHIERALPHHRVIEVGNNDIDDVNIIVFRQINQFDLSGNVITSSEYLPTLWVKLYKSENLDNPIQTVSLGQSLFFHFPPLLRDGENYVVLLDSTLPRSQYDYILPQVSFTAVGYHKHITLIFNPTRKLPEQDIAQGSYIALPLTLLVLLAGYNHDKLIPLLLQLTSRLQGVRALGQAASDNSGPEDAKRQAKKQKTRRT
# Test system: KDM4A-I71AzF
# Experiment: CASI: photo-crosslinking with HEK293T cell extracts, StrepTactin enrichment and LC-MS/MS proteomics;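 note: lysates from HEK293T cells pretreated with a KDM4 inhibitor to raise proteome methylation, affinity-purified after ±UV, gel-resolved, trypsin-digested, with exclusive unique peptides per protein averaged per condition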
# Type: binding, human
# Conditions: sheet "Final results but with 0.01"
row,Molecule,Fold change (+UV/-UV)
1,B1,0.8462
2,B2,0

# Source: paper PMC10540216, “Activity Guided Azide-methyllysine Photo-trapping for Substrate Profiling of Lysine Demethylases” (Journal of the American Chemical Society, 2023)
